Experimental findings from PMC8386104 (RSC Chemical Biology, 2020) are described below.

A word on the IC50: it is the concentration that gives 50% inhibition. A high value points to lower potency.

The target of one test is MDM2 (UniProt Q00987 1-491). The test can be described thus: fluorescence polarisation. A general note: Polarisation of emitted light reports the rotation of a fluorescent probe.
In a further test the target is T1, MDMX (UniProt O15151 1-490).
T1 sequence: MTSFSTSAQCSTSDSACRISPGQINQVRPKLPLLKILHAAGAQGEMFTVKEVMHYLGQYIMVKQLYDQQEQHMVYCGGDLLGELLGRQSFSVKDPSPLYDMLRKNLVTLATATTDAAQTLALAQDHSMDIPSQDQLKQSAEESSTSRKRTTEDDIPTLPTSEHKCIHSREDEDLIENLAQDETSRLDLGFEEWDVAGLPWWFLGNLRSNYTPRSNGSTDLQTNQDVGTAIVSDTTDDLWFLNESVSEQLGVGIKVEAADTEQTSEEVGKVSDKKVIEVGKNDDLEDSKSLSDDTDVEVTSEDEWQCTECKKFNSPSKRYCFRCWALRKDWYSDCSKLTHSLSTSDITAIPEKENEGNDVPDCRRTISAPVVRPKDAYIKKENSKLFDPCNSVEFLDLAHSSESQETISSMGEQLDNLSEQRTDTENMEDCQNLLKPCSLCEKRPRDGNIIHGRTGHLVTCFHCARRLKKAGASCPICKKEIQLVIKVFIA
Description: fluorescence polarisation.

Chain of MDM2 (Q00987 whole entry): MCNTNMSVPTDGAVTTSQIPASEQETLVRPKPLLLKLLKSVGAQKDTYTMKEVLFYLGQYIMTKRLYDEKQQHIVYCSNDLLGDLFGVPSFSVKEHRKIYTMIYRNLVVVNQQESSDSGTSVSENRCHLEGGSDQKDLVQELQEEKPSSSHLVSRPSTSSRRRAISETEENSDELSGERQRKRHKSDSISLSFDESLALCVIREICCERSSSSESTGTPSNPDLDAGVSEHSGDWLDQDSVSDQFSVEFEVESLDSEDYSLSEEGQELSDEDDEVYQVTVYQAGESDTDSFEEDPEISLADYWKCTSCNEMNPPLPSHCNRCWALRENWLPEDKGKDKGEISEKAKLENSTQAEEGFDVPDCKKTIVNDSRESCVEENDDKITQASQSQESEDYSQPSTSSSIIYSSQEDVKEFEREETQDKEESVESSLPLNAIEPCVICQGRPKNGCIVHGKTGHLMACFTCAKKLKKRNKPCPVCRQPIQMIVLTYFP

Consider LTFEHYWALLT (designed binder, C-terminal amide) [PF4P_pDI], for which the concentration for half-maximal inhibition (IC50) with MDM2 and in the test with MDMX was less than 1 nM each time.
